Measured values as given in the supplement of paper PMC9170038.

Tested on: MS2 coat protein
Experiment: apparent KD of MS2 coat protein; designed switch direction (-1 OFF switch, 1 ON switch): 1; higher = weaker reporter binding
Outline: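 The reported apparent KD is a per-design median over clusters, from curve fits of normalised cluster fluorescence. Protein titrations used SNAP-549-labelled MS2 coat protein, doubled from 0.7 or 1.5 nM to 3 µM, in Tris-HCl pH 7.5 buffer with KCl, MgCl2, BSA, DTT, tRNA and Tween-20, with no input, 200 uM small-molecule ligand, or an oligonucleotide input. The RNA switches were transcribed on Illumina chips by stalled E. coli RNA polymerase.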

[1] = Eterna round: R95, input ligand: FMN 200 uM
[2] = Eterna round: R95, input ligand: microRNA oligo, concentration not stated
[3] = Eterna round: R95, input ligand: none
[4] = input ligand: microRNA oligo, concentration not stated

Row | Sequence | apparent KD of MS2 coat protein [1] [nM] | apparent KD of MS2 coat protein [2] [nM] | apparent KD of MS2 coat protein [3] [nM] | apparent KD of MS2 coat protein (input ligand: FMN 200 uM) [nM] | apparent KD of MS2 coat protein [4] [nM] | apparent KD of MS2 coat protein (input ligand: none) [nM]
1 | AGUCCAGCCUAAGCUGGACAAAAGCAUGUACAUGAGGAUCACCCAUGUUCAUGUACAAGCUUUUUGCUCGUCUUAAG [Mat - hsa-mir-208a - Mod of JL - 65] (puzzle: Sensor for hsa-mir-208a) | 864 | 18.7 | 844 |  |  | 
2 | AUUGCUGUCACAGGAUAUCAUGCGGAAAUCGCGUGAGAAGGGUGGACUCUGUCAUUCACGGAGGACAUGAGGAUCACCCAUGUC [SS NG10LRO18] (Eterna round: R96, puzzle: Same State NG 1) |  |  |  | 508 | 29 | 62.4
3 | AAGUGAUGGGUUAGUAACUGCUAGUAAGGACAUGAGGAUCACCCAUGUGAGUAACGAGCUUUUGCUCGUCUUAUAAA [JR_SHM208A_Sub020] (puzzle: Sensor for hsa-mir-208a) | 89.7 | 48.9 | 110 |  |  | 
4 | UUGAUGUACUGAGGAUAUCGUGUCGUCUGUUUUUACAUGAGGAUCACCCAUGUGGGUUGUGGUAUCGAGAAGGCAGUUUUCUUA [JR_SSNG2_Sub030] (Eterna round: R96, puzzle: Same State NG 2) |  |  |  | 306 | 560 | 582
5 | UGGCUCAGACUAGGAUAUAUGUGGUCACAUGAGGAUCACCCAUGUCUCGAGCUUCGGCUCGAGGCAUAGAAGGAGUCUGAGCCU [SSNG2/5-D3] (Eterna round: R96, puzzle: Same State NG 2) |  |  |  | 249 | 15.3 | 59.9
6 | CCCAUGAAUAGUCAGGAUAUACGAUUUUAUACAUGAGGAUCACCCAUGUUAAGACUCCUCAAUAAGUAGAAGGGACUAUUUAUAA [Tesla Same State 2] (puzzle: Same State 2) | 154 | 144 | 103 |  |  | 
7 | CGUCGUUUGUUAGGAUAUCGCUAUACAUGAGGAUCACCCAUGUUUACCACGCUGGUUUUUCAUACCGAGAAGGAUUCUGAUGUU [salish99_SSNG02_r04_019] (Eterna round: R96, puzzle: Same State NG 2) |  |  |  | 42.5 | 31.6 | 37.8
8 | UUCACCUUUUUUUACAUGAGGAUCACCCAUGUUUUUUUUACGUAGGAUAUCGAUGCUUGUUUUUUCGAGAAGGACGAUGUAAGU [JR_SSND3_Sub052] (Eterna round: R96, puzzle: Same State NG 3) |  |  |  | 16.7 | 12.2 | 18.2
9 | UGUCCAGCCUGAGCUGGACAAAAGCAUGUACAUGAGGAUCACCCAUGUUCAUGUACAAGCUUUUUGCUCGUCUUAGU [salish99_208a_r3_065] (puzzle: Sensor for hsa-mir-208a) | 489 | 13.8 | 619 |  |  | 
10 | GUAGAUGUAGAGGAGGAUAUUCAAUGAGGAACAUGAGGAUCACCCAUGUAAGAGAGAGAUGAUGAGAAGAAGGCUUAGAGAGAUG [Altered State 2-2 - Jieux - Same State 2] (puzzle: Same State 2) | 32.3 | 31.3 | 46 |  |  | 
11 | GUAGCAUGCAGGCAGGAUAUUCAUAUUAAAACAUGAGGAUCACCCAUGUAGGCCAAAAGGCCUUGGGAGAAGGGCCACAUGCUAC [Xeonanis - 19] (Eterna round: R96, puzzle: Same State 2) |  |  |  | 35.7 | 337 | 424
12 | GUUUUUAGUGCAGGAUAUGAUCAACAUGAGGAUCACCCAUGUGGCGUUGUGAGUAGGGAGAGAGAUCAGAAGGGCGUCUCCGCG [SS-NG2-LRO13] (Eterna round: R96, puzzle: Same State NG 2) |  |  |  | 51.5 | 37 | 57.3
13 | GGUAAGAAUUAAGGAUAUUGAAUACAUAUGUUUAACAUGAGGAUCACCCAUGUGGGUUGCGGUGUCGAGAAGGUAAAUUAAUAG [Mat - same State NG 2 - JL mod - D100] (Eterna round: R96, puzzle: Same State NG 2) |  |  |  | 262 | 166 | 305
14 | ACAUGAGAGAUAGGAUAUCUUGUACCUACAUGUGACAUGAGGAUCACCCAUGUGGUAAGUAUGAGAGAGAAGGAUCAGAUAUGU [Equivalence 36 - Jieux - Same State NG 2] (Eterna round: R96, puzzle: Same State NG 2) |  |  |  | 14.1 | 14.3 | 21.2
15 | GUAGCAUACCGAGGAUAUUCAUAUUAACAUGAGGAUCACCCAUGUUUUUAGGCCAAAAGGCCUUGGGAGAAGGCGGAAUGCUAC [Xeonanis - 20 Mod6] (Eterna round: R96, puzzle: Same State NG 2) |  |  |  | 11.4 | 12.8 | 16.1
16 | AUGCUCGUGUGAGGAUAUGCCGCCGUUUCGGCUGCAGAAGGUGCUACGUUACAUGAGGAUCACCCAUGUCUCUGUUGUUUCGUG [salish99_SSNG1_r04_942] (Eterna round: R96, puzzle: Same State NG 1) |  |  |  |  | 18.7 | 

Row | Sequence | apparent KD of MS2 coat protein [1] [nM] | apparent KD of MS2 coat protein [2] [nM] | apparent KD of MS2 coat protein [3] [nM] | apparent KD of MS2 coat protein (input ligand: FMN 200 uM) [nM] | apparent KD of MS2 coat protein [4] [nM] | apparent KD of MS2 coat protein (input ligand: none) [nM]
17 | CGAUGAAACAAAGGAAGAAGAGUUGAAGUACAUGAGGAUCACCCAUGUCAGAGCUUUUUGCUCGUCAUGAACAGGAA [JR_SHM208a_Sub004] (puzzle: Sensor for hsa-mir-208a) | 35.9 | 24.4 | 54.9 |  |  | 
18 | AAGGGAUGAGCGUAGGAUAUAGGAGAAGUGACAUGAGGAUCACCCAUGUAAAAGGAGGGAUGAGACUAGAAGGACGAGGUAGGAG [JR_SS2_Sub059] (puzzle: Same State 2) | 132 | 84.6 | 91.5 |  |  | 
19 | AGAUCAUGACGAGGAUAUGGUACAUGAGGAUCACCCAUGUAUGUACUAUAAUCCGAAUGAGGAAUCCAGAAGGCGUCGUGGUCA [JL SSNG2 1.14] (Eterna round: R96, puzzle: Same State NG 2) |  |  |  | 44.9 | 94.1 | 145
20 | UGUUGGUUUUUGCUCGUUUUUUGUGUUGAACAUGAGGAUCACCCAUGUAUUGUACAGUCCAGUUUGGUAAUGGUGCG [JR_SHM208A_Sub046] (puzzle: Sensor for hsa-mir-208a) | 41.6 | 31.4 | 57.5 |  |  | 
21 | ACAUAGGUUUCAGGAUAUGGGUAAAUUCCCAACAUGAGGAUCACCCAUGUCCGUUGGGAUAACAUCCAGAAGGGAAGCCACAUA [MOD2 Eternabot Solution 1 (Score 87.5)] (Eterna round: R96, puzzle: Same State NG 2) |  |  |  | 215 | 88.1 | 390
22 | GACCGCGAGGAAGGAUAUGGAGCCUUAUUGGCUCCAGAAGGUCCAUAAAGGACAUGAGGAUCACCCAUGUGGUGAGAAGCGGUC [Fiskers NG1ss - 27] (Eterna round: R96, puzzle: Same State NG 1) |  |  |  |  | 788 | 
23 | CUAAAAGGAUGAGGAUAUGCAGAGGAUCACCCUGUAGAAGGCAACAGAUGAGGAUAUGCAGAGGAUCACCCUGUAGAAGGCAAC [pwkr ssNG DX.2] (Eterna round: R96, puzzle: Same State NG 1) |  |  |  | 233 | 56.8 | 94.1
24 | GUGGUCAGACAUGAGGAUCACCCAUGUGGAAUAAAUAAGGAGAAGGAUAUGCAAUAUAGGAUAUAGUAGAAGGUCUGGUUGGUG (Eterna round: R96, puzzle: Same State NG 3) |  |  |  |  | 63.4 | 
25 | AUACAUAUCAGAGGAUAUCACGUCGAAUAGACGUGAGAAGGCUGAUCACACAUGAAUAUUAAUACAUGAGGAUCACCCAUGUAU [SSNG1/14-A1] (Eterna round: R96, puzzle: Same State NG 1) |  |  |  | 13.1 | 13.3 | 17.4
26 | UAGUGAUUGCAAGGAUAUGCUUAUGUUUAAUUUUUUUUAAUAUCUAACAUGAGGAUCACCCAUGUGCAGAAGGUGCUUGAUUUG [JR_SSNG2_Sub075] (Eterna round: R96, puzzle: Same State NG 2) |  |  |  |  | 54.2 | 
27 | CCGGCCACACAACAAGGCCAACAUGAGGAUCACCCAUGUACACAGGAUAUCGGCAGCCAAGGCUCCGAGAAGGGUGGUUCAAUU [Beage] (Eterna round: R96, puzzle: Same State NG 3) |  |  |  | 438 | 145 | 234
28 | CCAACGUACAAUUUAGAUCUACAUGAGGAUCACCCAUGUACGGAGGAUAUCAGCUCGAAUAGAGCUGAGAAGGCCGAAUUAAUU [SSNG3/2-A1] (Eterna round: R96, puzzle: Same State NG 3) |  |  |  |  | 248 | 
29 | GUACAUAUCGUAGGAUAUCACGUCGAAUAGACGUGAGAAGGACGGUCCCACAUGAAUAUUAAUACAUGAGGAUCACCCAUGUAC [MOD SSNG 1/18-A1 by Brourd] (Eterna round: R96, puzzle: Same State NG 1) |  |  |  | 92.5 | 41.8 | 43
30 | GCUCGUAUGAUGACCGACAUGAGGAUCACCCAUGUAUGUUGGUAGGAUAUCUAUAUUAAGGAUAUAGAGAAGGGCCGAACGAGC [SameState NG3 #15] (Eterna round: R96, puzzle: Same State NG 3) |  |  |  | 26.5 | 33.6 | 40.1
31 | UAAAAACAUGAGGAUCACCCAUGUCAAAAGACAUGAGGAUAUGUACAGACUUCGGUCUGUACAGAAGGCAUGAAAA [salish99_ss1_r3_094] (puzzle: Same State 1) | 33.3 | 503 | 362 |  |  | 
